The DeepSol protein solubility set

Experiment: soluble on expression in E. coli; label from the status in PepcDB or PDB records

Sequence | soluble on expression in E. coli
MGSDKIHHHHHHMFVGFDYGSANCAVGIMQGDEVSLLPLSTDSAYLPSTLYAMDRELIAEAVYRALPAELKADYAKKRAAQLSRARMVRHELDLDAESPAVFVGEQAVAAYLEMPEEGFYVRSPKSFLGATGLRPEQVALFEDIVTLMMQHIKVRAEAVLVQKGMASKDEARITHAVIGRPVNFQGIGGEESNRQAEAILTLAAKRAGFVDVAFLFEPLAAGMDYEAGLKADQTVLVVDVGGGTTDCSVVKMGPSHKASFDRSRDCLGHSGQRIGGNDLDIALAMNAFMPHFGLGSLMSNGKPMPSNPFWNAVAVNDISAQREFATLSTRKLIDELIKEAEQPNLLKRLLKVQQQQLSYQIVRLAERAKIALSDAHTTESSLEFIEAMLSAEVNRDCFENAIEPSLGKIEALMHQALTQAAKSLTGNGLAPEELSVEAGTAECQPDVIYVTGGTARSPAIYAKITSLYPDTPVVVGDHFGSVTAGLTRWAQKHFAQ | not soluble
MSLDHIIIRHAHAAVITAPLNTPFRIATGQHDQLENVFFQLKAHDGTCGYGEAAVASHITGETVEQTLANLQKAATQLAGRNGNDPVELIEEFRPLFVGNHAALAAFEMALFDLASRSRGIPFGALFSAAPGCAARPRFQSDITIVIGSLEEAETAARHYAGQGFTAFKIKVGKDHELDLQRVLAVKRIAPDSCLVLDANMGFDATGMRRFLQQLEQHGIRPDLLEQPVPKGDWDGLAAITREFAGSGMLICADESVGSLAAAELAVALKAVNAINIKFMKSGITESVRIAELACRNNIKLMLGAMMESSLAITAAAHFAATLGCFEVIDLDTTFFINGPLSRSPYLDQSGRFDLGAPGPGIGVALKLLEGHHHHHH | soluble
GMEPIMRNPEDALLDSWHQNAQAWIDAVRHGAIESRRQVTDQAILLAILGRQPERVLDLGCGEGWLLRALADRGIEAVGVDGDRTLVDAARAAGAGEVHLASYAQLAEAKVPVGKDYDLICANFALLHQDIIELLSAMRTLLVPGGALVIQTLHPWSVADGDYQDGWREESFAGFAGDWQPMPWYFRTLASWLNALDMAGLRLVSLQEPQHPQSAVPQSLLMVAERH | soluble
NTDKHIYLEEHISPESQPMLSTYFRSMGKPRSIKENVLTVPQDASPETLALYYFARIYLERYEGVPLPDDMPDLIEFGRKHNMPWVVAEAKLNKAIRMIELDDDWHAELLLHDVIGESRDIGYLALQGRAYRWMGNLEIARNQIHNGLKHYRTAYELLENTVFEIQVAMTLNNIGTVYLDSSDWNRASNYLKQALDVYESSEYEYDNS | not soluble
MSLIMTTFIQLHLLTAYAPANLNRDESGRPKTAFMGGVERLRVSSQSLKRAWRVSETFEAAMDGFMGKRTRRIGVDYVYRPMKDAGIEEKIAKSSSELIAKQFGKLKSDKDAKPEKNLEIEQIVHVSNHEISLIKQLVDTLIADKREPNDEEVKLLRKEQRSVDMALFDRMLASSPEFNVEAACQVSHALGVSAVTVESDFFTAVDDLNNKEEDAGSGHMGEQGFASALFYTYVCISRDLLVENLGGNEELAKRTIAALTETALTVSPTGKQNSFASRAYATYALAEVGQKQPRSLAAAFFQPVRDTDQIPAAITRLKQQRASFDSVYGNCADDYRELNVQEGTGSLAELLAFVSQEGHHHHHH | soluble
MTELQHPVLVVDDETDILDLMEMTLMKMGLRVHTASGVAEAKNKLDSQRYSLVLTDMRMPDGSGLEVVQHINSRLLDTPVAVITAFGNADQAQEALRCGAFDPDTMQIQDYLDQIERDIIEQTLKQTEGNRTQAAKRLGISFRSMRYRMERLNIG | not soluble
MSDNAQLSGLCDRFRGFYPVVIDVETAGFNAKTDALLEIAAITLKMDEQGWLMPDMTLHFHVEPFAGANLQPEALAFNGIDPSNPLRGAVSEYEALHAIFKMVRKGIKDSGCSRAIMVAHNATFDHSFMMAAAERASLKRNPFHPFVTFDTAALSGLALGQTVLSKACLAAGMEFDGEKAHSALYDTERTAVLFCEIVNRWKRLGGWPLPLPTDK | not soluble
MGSDKIHHHHHHMTEITTLSQFLTTAKTQFQVYELGRRVQHIDMLAFHQIESLVTPYPYPIQGHAQFAVVFWNESQQHFIWFLKLPLDEQGLLSPAPRSQFIEMVLTALGQDPTQPLTDEQQDRLANNPFSFKPSQEKLSVFNALVRKQLGLSASIQYEFAMQYLSGQIAPSEWQHIGMQGLSDVCVRLGELDHEQHILASFDQAAIEVQIALCQCLEHLQLTEAIAMKIFSKFITAPNEYQAYYLRALASQTELSQQALLHLQQTDRLDANALISIAGRNWPILKQALSRSIYLEALALQPQAFFNQIFADIVAIPNLRNHLLGELRNPNRSVQLSQAIGGLFKAASK | not soluble
MTTKHSRTPGRPRQFDPEQAIETAQHLFHSRGYDAVSVADLTKAFGINPPSFYAAFGSKLGLYTRVLKRYRMTDAIPLGALLRHDRPTAKCLIDVLMEAARRYAADPDATGCLVLEGAHCNDKPAREAACEFYIAAENLIRTYVAMRYPQEADRTTDFMGTLMAGLSAKARAGYGLERLQESVLLAGDVLERLLPD | not soluble
MKKALLYRRGGLGDTLLTFPILEILKRRGYETIAVGNTDYFSIAKEVGYADGVYSFIPEEEFDLKVIISFEGNVKPFPEKREWIVKHYLNSLGLGEEFSTKLPIKPVQDSPLKGKVVIHPSSGSKKKNPPLEVFLKLKDFLEERGKEVVFLLGEAEEHLREVLSPHFLSLSPLEIAKHLKTAGFYVGLDSGISHLASYLGVPSFIVYGPTDPLVWRPIGDKVFQISLNLDCSPCFPNVCEERMCLDTEEVLRKTKETLLRYWNSL | not soluble
MASISEKMVEALNRQINAEIYSAYLYLSMASYFDSIGLKGFSNWMRVQWQEELMHAMKMFDFVSERGGRVKLYAVEEPPSEWDSPLAAFEHVYEHEVNVTKRIHELVEMAMQEKDFATYNFLQWYVAEQVEEEASALDIVEKLRLIGEDKRALLFLDKELSLRQFTPPAEEEK | soluble
MGYESMLADIKSSLNGKISDVEDKIEKLKKAKKDIDTLQEEAITEIKEIVKPELGKHWTGTKADDFDKGREEAKSEASKIVNDKYNEYMASINGKIFDLEWDKAKYASELFIANGAADLLKKGEEFAEEVGNTISKLKWWLEHHHHHH | soluble
MSLENKENLVVIDLAIAEDSIQKKNIVYDKNGQNHFDVISAFIKSIRGSDPDATLYWLANMVEAGEDPNFIFRRLLISACEDIGLADPNAIVVVQSCCDAFDRVGFPEGLFFLSQASLYLAISPKSNSTKSIFKAMEAIKATNVSLVPNHLKNNASNYLNPHNYQGKWLQQEYLPTDLQGIKFWKPKDSGWEKNKYEDLPKKQKSEGHHHHHH | soluble
MGSDKIHHHHHHMSKLKDYNIDKVIIFNNLSTKTKNQLKEKVKLKRLQKKEILFYEKDSLDSVYILLEGKVSIFKISENGERKVIFILNSGEVINDITLDASKNSTVGCEAFENSIVAYYSIEEFLEIMQNDFQLTKDIISYMERRIRRLYRQLKNSISIKVDKKLAAKLYRLSREFGVCCGEWTLLNVNITVTYLADMLGCKRETVSRMIKVLQKEELIKIDNKGFYVKETELSRYFKNN | not soluble
MGSDKIHHHHHHMDLDRIKGEIVAFVEGRKSEFAAIAEDLYLHPETGLNEVRSSALLADFLEREGFRVERGIAGLPTAFRAETGEGGPVIAFMAEMDALPVMGHACGHNVIAAAAVGAATALRSILPPDAARIVVLGTPAEEMGIGKVDMIANGAFDGVEFALMVHPSSRRYVIKHYLGLARVRFTFFGKPAHAAAYPEEGINALDGVIQTFNGISALRQQLRQDVRVHGIITEGGVAPNIIPERASAHFYVRADDLAELERAKARVLACAEGAALATGCRLQVDADPRIMAPLKVNRIFSDLYSAQLAYLDLQESENQPDKNKGSSDIGNVSQIVPTIHPHVPIGDGINIHSEAFARATVSGKGKAAVAEGATALALTAAELAARPDIREEIWREFRS | not soluble
MVGGSLSPAFTIDEATSYINAVKEAFGADQPAKYREFLDIMLDLRANRVDLATVVPRMRELLKDHVNLLLRFNAFLPAEAKETFHDVRSYIYSLKESFRDEPAKYAQFLEILNDYSARRVDAPSAVARMTELMKDHRNLVLGFSVLLSTGDTKTTPLEAEPDNNKRIRVANFISKLKARFQGNDGHVYESFLEILTMYQQGNKSVNDLYQEVVALLQGHEDLVMEFSNVFKRTTGPSGSKSARDR | soluble
VRVLSYDKEKLNWLYKDPQGLVQGPFSLTQLKAWSDAEYFTKQFRVWMTGESMESAVLLTDVLRL | soluble
SRPVFAAKPDNEAIIDAQMKKPKVPVHAIATASHPMIRFIGHPEEQKNYDFFVPWLSKLPQWIAEGKQPYVMIHTADNIIAPELAANIYKNLQNHVALPDLAPFPANDGNSQLQMF | not soluble
MDLFTRKDGTSIHYSTLGEGYPIVLIHTVLDNYSVFNKLAAELAKSFQVVLIDLRGHGYSDKPRHIEIKDFSDDIVELLKYLYIEEVAFVCHEMGGIIGADISVRYPEFTSSLTLVNPTSIEGELPEERLFRKYAHIIRNWDPEKQDKFLNKRKYYRPRKMNRFLKHVVDTNEISTKEEIQAVKEVFKNADISQTYRNVVVPTKIIAGEFGERTTRLEAKEVADLIQNADFEVYQESSAFPFVEEQERFVEDTAAFINKHHDEKHV | not soluble
MSLQKTSFALLVAALQLASASALAATPPVADAIWFNGPIITIDDQHPKAQAVAVKDGKILAVGDRQHVLKNKGPATQMLDLKGATLLPGFVDPHGHVSMVGFQAASANLLPPPDGTNNSIPGLQETLRRFEQQSPIPKQFGVLFGFGYDDSQLQEQRHPTKADLDAVTRDLPIAIVHQSSHLGVLNSKALELAGIDASTPNPEGGVIRRVDGSQEPNGVLEENAFFNALIRIFPKLTADQAVDMLSAGQKLYVSYGYTTIQDGRSSPDQVKTAIKAAGDGKLLADIVSYPDILTPGVKQLMVAPWYHPSNQPVVYNQHFRIGGVKLTLDGSPQGKTAWLSQPYFKPPQGQDASYAGYGVVKDADALAIYKEALANRWQILSHTNGDRAIDQLLGSMRAAEQAYPGVDVRPVMIHGQTLRKDQVAELKQLKIFPSLFPMHTYYWGDWHRQSVLGPERAENISPTQWVLQAGMKFTTHHDAPVALPDSMRVLAATVNRTTRSGYVLGPDQRVTPLQALKAMTLWSAYQHFEEDRKGSITPGKLADFAVLSANPLTVKPETLSEIQVLKTVKEGRVIYERPAKVASEGHHHHHH | soluble
MRKIQVGVTGMTCAACSNSVEAALMNVNGVFKASVALLQNRADVVFDPNLVKEEDIKEEIEDAGFEAEILAEEW | soluble
MSLKKKTTLSEEDQALFRQLMAGTRKIKQDTIVHRPQRKKISEVPVKRLIQEQADASHYFSDEFQPLLNTEGPVKYVRPDVSHFEAKKLRRGDYSPELFLDLHGLTQLQAKQELGALIAACRREHVFCACVMHGHGKHILKQQTPLWLAQHPHVMAFHQAPKEYGGDAALLVLIEVEEWLPPEGHHHHHH | soluble
LPENGPEFKIEISLLKDQARVMIDTTGPSLFKRGYRTEKGGAPIKENMAAAIILLSNWFPDKPFVDPTCGSGTFCIEAAMIGMNIAPGFNRDFAFEEWPWVDEALVTRVRNEADEQADYDIQLDISGFDFDGRMVEIARKNAREVGLEDVVKLKQMRLQDFKTNKINGVLISNPPYGERLLDDKAVDILYNEMGETFAPLKTWSQFILTNDTDFEQKFGRKADKKRKLYNGSLKVDLYQFYGQRVKRVLR | not soluble
